# Measured values published in article PMC4837482, “The complex binding mode of the peptide hormone H2 relaxin to its receptor RXFP1” (Nature Communications, 2016).
# Positions count from the first letter of the chain named.
# Key:
# Assay in all cases: cAMP activity assay (pCRE β-galactosidase reporter), transfected HEK293T cells
# Type in all cases: cell-based
# [1] = target: T1, RXFP1 F54A (Homo sapiens, UniProt Q9HBX9, F76A); conditions: construct F54A, ±s.e.m.
# T1 construct: cells expressing full-length RXFP1 and mutants; expressed in transfected cells; host or cells: HEK293T
# T1 sequence (Q9HBX9 23-757 F76A limits assumed): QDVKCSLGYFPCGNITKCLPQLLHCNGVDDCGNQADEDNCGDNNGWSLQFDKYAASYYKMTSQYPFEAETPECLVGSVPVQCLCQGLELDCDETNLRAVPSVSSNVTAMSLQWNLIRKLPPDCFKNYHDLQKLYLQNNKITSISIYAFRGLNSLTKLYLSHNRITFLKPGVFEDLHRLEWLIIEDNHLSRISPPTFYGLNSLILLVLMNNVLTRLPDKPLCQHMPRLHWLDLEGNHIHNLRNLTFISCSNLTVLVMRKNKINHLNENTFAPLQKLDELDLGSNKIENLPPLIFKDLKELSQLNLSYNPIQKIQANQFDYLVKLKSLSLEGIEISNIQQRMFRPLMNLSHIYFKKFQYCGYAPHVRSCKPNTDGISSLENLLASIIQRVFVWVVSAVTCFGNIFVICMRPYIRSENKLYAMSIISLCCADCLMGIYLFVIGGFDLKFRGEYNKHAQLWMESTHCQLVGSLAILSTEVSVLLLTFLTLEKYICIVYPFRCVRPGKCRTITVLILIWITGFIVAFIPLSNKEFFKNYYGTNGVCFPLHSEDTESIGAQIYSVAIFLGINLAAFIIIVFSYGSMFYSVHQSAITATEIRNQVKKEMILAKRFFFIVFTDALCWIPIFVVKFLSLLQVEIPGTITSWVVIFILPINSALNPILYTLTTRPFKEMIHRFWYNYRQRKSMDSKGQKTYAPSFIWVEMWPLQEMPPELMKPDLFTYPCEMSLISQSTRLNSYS
# Outline: (§1)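 Receptor signalling is measured as CRE-driven β-galactosidase activity after H2 relaxin exposure, using a colorimetric substrate read at 570 nm. Values are normalised to 5 μM Forskolin, pooled from at least three independent triplicate experiments.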
# [2] = target: T2, RXFP1 K52A (Homo sapiens, UniProt Q9HBX9, K74A); conditions: construct K52A, ±s.e.m.
# T2 construct: cells expressing full-length RXFP1 and mutants; expressed in transfected cells; host or cells: HEK293T
# T2 sequence (Q9HBX9 23-757 K74A limits assumed): T1 sequence (Q9HBX9 23-757 F76A limits assumed) with K52A, A54F
# Outline: as §1
# [3] = target: T3, RXFP1 Y57A (Homo sapiens, UniProt Q9HBX9, Y79A); conditions: construct Y57A, ±s.e.m.
# T3 construct: cells expressing full-length RXFP1 and mutants; expressed in transfected cells; host or cells: HEK293T
# T3 sequence (Q9HBX9 23-757 Y79A limits assumed): T1 sequence (Q9HBX9 23-757 F76A limits assumed) with A54F, Y57A
# Outline: as §1
# [4] = percentage of maximum response to 5 μM Forskolin
substance,measurement,setting,value
H2 relaxin: two-chain 6-kDa peptide hormone structurally related to insulin; recombinant human gene-2 H2 relaxin provided by Corthera,H2 relaxin pEC50,[1]; cAMP reporter,10.23±0.13 (4)
same,H2 relaxin Emax,[1]; [4],104.89±10.48 (4) %
same,H2 relaxin pEC50,[2]; cAMP reporter,11.06±0.11
same,H2 relaxin Emax,[2]; [4],154.63±33.73 (5) %
same,H2 relaxin pEC50,[3]; cAMP reporter,10.93±0.10 (5)
same,H2 relaxin Emax,[3]; [4],126.7±8.46 (5) %
